Data reported in patent US20180273587A1 (AILERON THERAPEUTICS, published 2018).
Starred links: 1 amine or outer side, 2 acyl side, 3 side chain; linkers in the order of their positions; H or OH if unused. Positions of bridges follow the written chain, without caps; N, C: chain ends. Non-standard residues stand in square brackets, D forms with d. Gly(1-adamantyl) = N[C@H](C(=O)O)C12CC3CC(CC(C3)C1)C2; hhL = hhLeu, CC(C)CCC[C@H](N[*:1])C(=O)[*:2]; hCha = N[C@@H](CCC1CCCCC1)C(=O)O; hPhe = N[C@@H](CCc1ccccc1)C(=O)O; R8 = C=CCCCCCC[C@@](C)(N)C(=O)O; Cha = N[C@@H](CC1CCCCC1)C(=O)O; S5 = C=CCCC[C@](C)(N)C(=O)O

What was measured:
Assay in all cases: Ki table, method not stated
BCL-XL = BCL-XL (UniProt Q07817 1-209)
MCL-1 = biological target: T1, MCL-1 (UniProt Q07820 172-327, limits assumed)
T1 construct: also called Myeloid cell leukemia 1

BCL-2 = BCL-2 (UniProt P10415 1-217, limits assumed)
Chain of BCL-2 (P10415 1-217 limits assumed): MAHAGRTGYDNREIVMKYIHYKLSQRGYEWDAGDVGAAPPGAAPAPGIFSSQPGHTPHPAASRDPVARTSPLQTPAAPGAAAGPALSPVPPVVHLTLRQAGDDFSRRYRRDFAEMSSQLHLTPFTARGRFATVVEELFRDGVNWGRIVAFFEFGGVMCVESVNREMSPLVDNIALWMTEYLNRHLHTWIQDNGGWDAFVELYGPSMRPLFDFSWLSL

T1 sequence (Q07820 172-327 limits assumed): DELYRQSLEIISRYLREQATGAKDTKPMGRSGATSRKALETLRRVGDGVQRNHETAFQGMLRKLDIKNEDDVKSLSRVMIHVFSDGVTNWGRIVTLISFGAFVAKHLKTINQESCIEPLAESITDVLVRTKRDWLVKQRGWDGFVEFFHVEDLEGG
Chain of BCL-XL (Q07817 1-209): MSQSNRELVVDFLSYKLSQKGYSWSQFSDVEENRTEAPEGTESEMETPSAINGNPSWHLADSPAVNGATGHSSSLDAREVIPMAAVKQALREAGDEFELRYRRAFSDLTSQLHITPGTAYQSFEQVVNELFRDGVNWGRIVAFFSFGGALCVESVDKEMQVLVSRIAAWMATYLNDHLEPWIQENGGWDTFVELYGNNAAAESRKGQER

B1: SEQ ID NO: 1668 (peptide)
peptide: Ac-IWIAQALR[R8]AGDQFN[S5]YYA-NH2
modifications: staple 9-16
SMILES: CC[C@H](C)[C@H](NC(C)=O)C(=O)N[C@@H](Cc1c[nH]c2ccccc12)C(=O)N[C@H](C(=O)N[C@@H](C)C(=O)N[C@@H](CCC(N)=O)C(=O)N[C@@H](C)C(=O)N[C@@H](CC(C)C)C(=O)N[C@@H](CCCNC(=N)N)C(=O)N[C@]1(C)CCCCCCC=CCCC[C@@](C)(C(=O)N[C@@H](Cc2ccc(O)cc2)C(=O)N[C@@H](Cc2ccc(O)cc2)C(=O)N[C@@H](C)C(N)=O)NC(=O)[C@H](CC(N)=O)NC(=O)[C@H](Cc2ccccc2)NC(=O)[C@H](CCC(N)=O)NC(=O)[C@H](CC(=O)O)NC(=O)CNC(=O)[C@H](C)NC1=O)[C@@H](C)CC
Ki (BCL-XL): 1.9 nM | Ki (MCL-1): 122 nM | Ki (BCL-2): 4.8 nM

B2: SEQ ID NO: 1669 (peptide)
peptide: Ac-IWIAQALR[R8]FGDAFN[S5]YYA-NH2
modifications: staple 9-16
SMILES: CC[C@H](C)[C@H](NC(C)=O)C(=O)N[C@@H](Cc1c[nH]c2ccccc12)C(=O)N[C@H](C(=O)N[C@@H](C)C(=O)N[C@@H](CCC(N)=O)C(=O)N[C@@H](C)C(=O)N[C@@H](CC(C)C)C(=O)N[C@@H](CCCNC(=N)N)C(=O)N[C@]1(C)CCCCCCC=CCCC[C@@](C)(C(=O)N[C@@H](Cc2ccc(O)cc2)C(=O)N[C@@H](Cc2ccc(O)cc2)C(=O)N[C@@H](C)C(N)=O)NC(=O)[C@H](CC(N)=O)NC(=O)[C@H](Cc2ccccc2)NC(=O)[C@H](C)NC(=O)[C@H](CC(=O)O)NC(=O)CNC(=O)[C@H](Cc2ccccc2)NC1=O)[C@@H](C)CC
Ki (BCL-XL): 15.8 nM | Ki (MCL-1): 27.8 nM | Ki (BCL-2): 68.5 nM

B3: SEQ ID NO: 1670 (peptide)
peptide: Ac-IWIAQALR[R8]FGDQFN[S5]YYA-NH2
modifications: staple 9-16
SMILES: CC[C@H](C)[C@H](NC(C)=O)C(=O)N[C@@H](Cc1c[nH]c2ccccc12)C(=O)N[C@H](C(=O)N[C@@H](C)C(=O)N[C@@H](CCC(N)=O)C(=O)N[C@@H](C)C(=O)N[C@@H](CC(C)C)C(=O)N[C@@H](CCCNC(=N)N)C(=O)N[C@]1(C)CCCCCCC=CCCC[C@@](C)(C(=O)N[C@@H](Cc2ccc(O)cc2)C(=O)N[C@@H](Cc2ccc(O)cc2)C(=O)N[C@@H](C)C(N)=O)NC(=O)[C@H](CC(N)=O)NC(=O)[C@H](Cc2ccccc2)NC(=O)[C@H](CCC(N)=O)NC(=O)[C@H](CC(=O)O)NC(=O)CNC(=O)[C@H](Cc2ccccc2)NC1=O)[C@@H](C)CC
Ki (BCL-XL): 25.6 nM | Ki (MCL-1): 74.1 nM | Ki (BCL-2): 66.1 nM

B4: SEQ ID NO: 1671 (peptide)
peptide: Ac-IWFAQALR[R8]IGDAFN[S5]YYA-NH2
modifications: staple 9-16
SMILES: CC[C@H](C)[C@H](NC(C)=O)C(=O)N[C@@H](Cc1c[nH]c2ccccc12)C(=O)N[C@@H](Cc1ccccc1)C(=O)N[C@@H](C)C(=O)N[C@@H](CCC(N)=O)C(=O)N[C@@H](C)C(=O)N[C@@H](CC(C)C)C(=O)N[C@@H](CCCNC(=N)N)C(=O)N[C@]1(C)CCCCCCC=CCCC[C@@](C)(C(=O)N[C@@H](Cc2ccc(O)cc2)C(=O)N[C@@H](Cc2ccc(O)cc2)C(=O)N[C@@H](C)C(N)=O)NC(=O)[C@H](CC(N)=O)NC(=O)[C@H](Cc2ccccc2)NC(=O)[C@H](C)NC(=O)[C@H](CC(=O)O)NC(=O)CNC(=O)[C@H]([C@@H](C)CC)NC1=O
Ki (BCL-XL): 28 nM | Ki (MCL-1): 22 nM | Ki (BCL-2): 179 nM

B5: SEQ ID NO: 1672 (peptide)
peptide: Ac-IWFAQALR[R8]IGDQFN[S5]YYA-NH2
modifications: staple 9-16
SMILES: CC[C@H](C)[C@H](NC(C)=O)C(=O)N[C@@H](Cc1c[nH]c2ccccc12)C(=O)N[C@@H](Cc1ccccc1)C(=O)N[C@@H](C)C(=O)N[C@@H](CCC(N)=O)C(=O)N[C@@H](C)C(=O)N[C@@H](CC(C)C)C(=O)N[C@@H](CCCNC(=N)N)C(=O)N[C@]1(C)CCCCCCC=CCCC[C@@](C)(C(=O)N[C@@H](Cc2ccc(O)cc2)C(=O)N[C@@H](Cc2ccc(O)cc2)C(=O)N[C@@H](C)C(N)=O)NC(=O)[C@H](CC(N)=O)NC(=O)[C@H](Cc2ccccc2)NC(=O)[C@H](CCC(N)=O)NC(=O)[C@H](CC(=O)O)NC(=O)CNC(=O)[C@H]([C@@H](C)CC)NC1=O
Ki (BCL-XL): 25.9 nM | Ki (MCL-1): 29.3 nM | Ki (BCL-2): 205 nM

B6: SEQ ID NO: 1674 (peptide)
peptide: Ac-IWIAQALR[R8]IGNAFN[S5]YYA-NH2
modifications: staple 9-16
SMILES: CC[C@H](C)[C@H](NC(C)=O)C(=O)N[C@@H](Cc1c[nH]c2ccccc12)C(=O)N[C@H](C(=O)N[C@@H](C)C(=O)N[C@@H](CCC(N)=O)C(=O)N[C@@H](C)C(=O)N[C@@H](CC(C)C)C(=O)N[C@@H](CCCNC(=N)N)C(=O)N[C@]1(C)CCCCCCC=CCCC[C@@](C)(C(=O)N[C@@H](Cc2ccc(O)cc2)C(=O)N[C@@H](Cc2ccc(O)cc2)C(=O)N[C@@H](C)C(N)=O)NC(=O)[C@H](CC(N)=O)NC(=O)[C@H](Cc2ccccc2)NC(=O)[C@H](C)NC(=O)[C@H](CC(N)=O)NC(=O)CNC(=O)[C@H]([C@@H](C)CC)NC1=O)[C@@H](C)CC
Ki (BCL-XL): 416 nM | Ki (MCL-1): 195 nM | Ki (BCL-2): 405 nM

B7: SEQ ID NO: 1676 (peptide)
peptide: Ac-IWIAQALR[R8]IGDQFA[S5]YYA-NH2
modifications: staple 9-16
SMILES: CC[C@H](C)[C@H](NC(C)=O)C(=O)N[C@@H](Cc1c[nH]c2ccccc12)C(=O)N[C@H](C(=O)N[C@@H](C)C(=O)N[C@@H](CCC(N)=O)C(=O)N[C@@H](C)C(=O)N[C@@H](CC(C)C)C(=O)N[C@@H](CCCNC(=N)N)C(=O)N[C@]1(C)CCCCCCC=CCCC[C@@](C)(C(=O)N[C@@H](Cc2ccc(O)cc2)C(=O)N[C@@H](Cc2ccc(O)cc2)C(=O)N[C@@H](C)C(N)=O)NC(=O)[C@H](C)NC(=O)[C@H](Cc2ccccc2)NC(=O)[C@H](CCC(N)=O)NC(=O)[C@H](CC(=O)O)NC(=O)CNC(=O)[C@H]([C@@H](C)CC)NC1=O)[C@@H](C)CC
Ki (BCL-XL): 53.5 nM | Ki (MCL-1): 22.8 nM | Ki (BCL-2): 84.9 nM

B8: SEQ ID NO: 1677 (peptide)
peptide: Ac-IW[Cha]AQALR[R8]IGDAFN[S5]YYA-NH2
modifications: staple 9-16
SMILES: CC[C@H](C)[C@H](NC(C)=O)C(=O)N[C@@H](Cc1c[nH]c2ccccc12)C(=O)N[C@@H](CC1CCCCC1)C(=O)N[C@@H](C)C(=O)N[C@@H](CCC(N)=O)C(=O)N[C@@H](C)C(=O)N[C@@H](CC(C)C)C(=O)N[C@@H](CCCNC(=N)N)C(=O)N[C@]1(C)CCCCCCC=CCCC[C@@](C)(C(=O)N[C@@H](Cc2ccc(O)cc2)C(=O)N[C@@H](Cc2ccc(O)cc2)C(=O)N[C@@H](C)C(N)=O)NC(=O)[C@H](CC(N)=O)NC(=O)[C@H](Cc2ccccc2)NC(=O)[C@H](C)NC(=O)[C@H](CC(=O)O)NC(=O)CNC(=O)[C@H]([C@@H](C)CC)NC1=O
notes: also called Ac-IWChaAQALR$r8IGDAFN$YYA-NH2
Ki (BCL-XL): 14.4 nM | Ki (MCL-1): 43.8 nM | Ki (BCL-2): 105 nM

B9: SEQ ID NO: 1678 (peptide)
peptide: Ac-IW[hhL]AQALR[R8]IGDAFN[S5]YYA-NH2
modifications: staple 9-16
SMILES: CC[C@H](C)[C@H](NC(C)=O)C(=O)N[C@@H](Cc1c[nH]c2ccccc12)C(=O)N[C@@H](CCCC(C)C)C(=O)N[C@@H](C)C(=O)N[C@@H](CCC(N)=O)C(=O)N[C@@H](C)C(=O)N[C@@H](CC(C)C)C(=O)N[C@@H](CCCNC(=N)N)C(=O)N[C@]1(C)CCCCCCC=CCCC[C@@](C)(C(=O)N[C@@H](Cc2ccc(O)cc2)C(=O)N[C@@H](Cc2ccc(O)cc2)C(=O)N[C@@H](C)C(N)=O)NC(=O)[C@H](CC(N)=O)NC(=O)[C@H](Cc2ccccc2)NC(=O)[C@H](C)NC(=O)[C@H](CC(=O)O)NC(=O)CNC(=O)[C@H]([C@@H](C)CC)NC1=O
notes: also called Ac-IWhhLAQALR$r8IGDAFN$YYA-NH2
Ki (BCL-XL): 11.9 nM | Ki (MCL-1): 21.2 nM | Ki (BCL-2): 161 nM

B10: SEQ ID NO: 1679 (peptide)
peptide: Ac-IW[Gly(1-adamantyl)]AQALR[R8]IGDAFN[S5]YYA-NH2
modifications: staple 9-16
SMILES: CC[C@H](C)[C@H](NC(C)=O)C(=O)N[C@@H](Cc1c[nH]c2ccccc12)C(=O)N[C@H](C(=O)N[C@@H](C)C(=O)N[C@@H](CCC(N)=O)C(=O)N[C@@H](C)C(=O)N[C@@H](CC(C)C)C(=O)N[C@@H](CCCNC(=N)N)C(=O)N[C@]1(C)CCCCCCC=CCCC[C@@](C)(C(=O)N[C@@H](Cc2ccc(O)cc2)C(=O)N[C@@H](Cc2ccc(O)cc2)C(=O)N[C@@H](C)C(N)=O)NC(=O)[C@H](CC(N)=O)NC(=O)[C@H](Cc2ccccc2)NC(=O)[C@H](C)NC(=O)[C@H](CC(=O)O)NC(=O)CNC(=O)[C@H]([C@@H](C)CC)NC1=O)C12CC3CC(CC(C3)C1)C2
notes: also called Ac-IWAdmAQALR$r8IGDAFN$YYA-NH2
Ki (BCL-XL): 7.3 nM | Ki (MCL-1): 21.6 nM | Ki (BCL-2): 59 nM

B11: SEQ ID NO: 1680 (peptide)
peptide: Ac-IW[hCha]AQALR[R8]IGDAFN[S5]YYA-NH2
modifications: staple 9-16
SMILES: CC[C@H](C)[C@H](NC(C)=O)C(=O)N[C@@H](Cc1c[nH]c2ccccc12)C(=O)N[C@@H](CCC1CCCCC1)C(=O)N[C@@H](C)C(=O)N[C@@H](CCC(N)=O)C(=O)N[C@@H](C)C(=O)N[C@@H](CC(C)C)C(=O)N[C@@H](CCCNC(=N)N)C(=O)N[C@]1(C)CCCCCCC=CCCC[C@@](C)(C(=O)N[C@@H](Cc2ccc(O)cc2)C(=O)N[C@@H](Cc2ccc(O)cc2)C(=O)N[C@@H](C)C(N)=O)NC(=O)[C@H](CC(N)=O)NC(=O)[C@H](Cc2ccccc2)NC(=O)[C@H](C)NC(=O)[C@H](CC(=O)O)NC(=O)CNC(=O)[C@H]([C@@H](C)CC)NC1=O
notes: also called Ac-IWhChaAQALR$r8IGDAFN$YYA-NH2
Ki (BCL-XL): 13.1 nM | Ki (MCL-1): 22.2 nM | Ki (BCL-2): 182 nM

B12: SEQ ID NO: 1681 (peptide)
peptide: Ac-IW[hPhe]AQALR[R8]IGDAFN[S5]YYA-NH2
modifications: staple 9-16
SMILES: CC[C@H](C)[C@H](NC(C)=O)C(=O)N[C@@H](Cc1c[nH]c2ccccc12)C(=O)N[C@@H](CCc1ccccc1)C(=O)N[C@@H](C)C(=O)N[C@@H](CCC(N)=O)C(=O)N[C@@H](C)C(=O)N[C@@H](CC(C)C)C(=O)N[C@@H](CCCNC(=N)N)C(=O)N[C@]1(C)CCCCCCC=CCCC[C@@](C)(C(=O)N[C@@H](Cc2ccc(O)cc2)C(=O)N[C@@H](Cc2ccc(O)cc2)C(=O)N[C@@H](C)C(N)=O)NC(=O)[C@H](CC(N)=O)NC(=O)[C@H](Cc2ccccc2)NC(=O)[C@H](C)NC(=O)[C@H](CC(=O)O)NC(=O)CNC(=O)[C@H]([C@@H](C)CC)NC1=O
notes: also called Ac-IWhFAQALR$r8IGDAFN$YYA-NH2
Ki (BCL-XL): 69.7 nM | Ki (MCL-1): 53.1 nM | Ki (BCL-2): 221 nM
